Experimental data from the RNAGym collection of RNA variant scans (doi:10.7554/elife.80360).

B1: Hairpin Ribozyme (parent)
chain: GUCCUCUUUCACGUGCGCGUGAAAGAGAGAAGUGAACCAGAGAAACACACGUUGUGGUAUAUUACCUGGUA

Variants of: B1
Assay: self-cleavage, relative activity (ratio to wild type); higher = more cleavage; co-transcriptional

Variant | self-cleavage
GUCCUCUUUCACGUGCGCGUGAAAGAGAGAAGUGAACCAGAGAAACACACGUUGUGGGAUAUUACCGGGUA [U58G U67G] | 0.173
GUCCUCUUUCACGUGAGCGUGAAAGAGAGAAGUGUACCAGAGAAACACACGUUGUGGUAUAUUACCUGGUA [C16A A35U] | 0.789
GUCCUCUUUCGCGUGCGCGUGAAAGAGAGAAGUGAACCAGAGAAACACACGUUGUGGUAAAUUACCUGGUA [A11G U60A] | 0.732
GUCCUCUUUCACGUGCGCGUGAAAGAGAGAAGUGAACCAUACAAACACACGUUGUGGUAUAUUACCUGGUA [G40U G42C] | 0.0925
GUCCUCUUUCACGUGCGCGUGAAAGAGAGCAGUGAACCAGAGAAACACACGUUGUGGUAUAUUACGUGGUA [A30C C66G] | 0.248
GUCCACUUUCACGUGCGCGUGUAAGAGAGAAGUGAACCAGAGAAACACACGUUGUGGUAUAUUACCUGGUA [U5A A22U] | 0.274
GUCCUCUUUCACGUGCGCGUGAAAGAGAUAAGUGAACCAGAGAAACACACGAUGUGGUAUAUUACCUGGUA [G29U U52A] | 0.124
GUCCUCUUUCUCGUGCGCGUGAAAGAGAGAAGUGAACAAGAGAAACACACGUUGUGGUAUAUUACCUGGUA [A11U C38A] | 0.2
GUCCACUUUCACGUGCGCGUGAAAGAGAGAAGUGAACCAGAGAAACACACGUGGUGGUAUAUUACCUGGUA [U5A U53G] | 0.278
GUCGUCUUUCACGUGCGCGUGAAAGAGAGAAGUGAACCAGAGAACCACACGUUGUGGUAUAUUACCUGGUA [C4G A45C] | 0.0824
GUCCUCUUUCACGUGCGCCAGAAAGAGAGAAGUGAACCAGAGAAACACACGUUGUGGUAUAUUACCUGGUA [G19C U20A] | 0.965
GUCCUCUUUCACGUGCGCGUGAAAGAGAGAAAUGAACCAGAGAAACACACGUUGUGGUAUAUUACCUGGUG [G32A A71G] | 0.183
GUCCUCUUUCACGUGCGCGUGAAAGAGAGAAGUUAACCAGAGAAACACACGUUGUGGUCUAUUACCUGGUA [G34U A59C] | 0.27
GUCCUCUUUCACGUGCGCGUGAAAGAGAGAAGUGCACCAGAGAAACACACGUUGUGGUAUAUUACCUGGAA [A35C U70A] | 0.805
GUCCUCUUUCACGUGCGCGUGAAAGAGAGAAGUGAACCAGAGAACCACACGUUGAGGUAUAUUACCUGGUA [A45C U55A] | 0.192
GUCCUCUUUCACGUGCGCGUGGAAGAGAGAAGUGAACCAGAGAAACACACGUUGUGGUAUAUUAACUGGUA [A22G C65A] | 0.631
GUCCUCUUUCACGUGCGCGUGAAAGAGAGAAGUGAACCACAGAAACACACGUUGUGGUAUAUUACCUGGUG [G40C A71G] | 0.165
GUCCUCUUUCACGUGCGCGUGAAAGAGAGAAGUGAACCAGAGUAACACACGUUGUGGUAUAUUACCAGGUA [A43U U67A] | 0.0806
GUCCUCUUUCACGUGCGCGUGAAAGAGAGAAGUGGACCAGAGAAACACAGGUUGUGGUAUAUUACCUGGUA [A35G C50G] | 0.19

Variant | self-cleavage
GUCCUCUUUCACGUGCGCGUGAAAGAGAGAAGUGAACCAUAGAAACACACGUUGUGAUAUAUUACCUGGUA [G40U G57A] | 0.128
GUCCUCUUUCACGUGCGCGUGAAAGAGAGAAGUGAACCACAGAAACACACGUUGUGGUAUAAUACCUGGUA [G40C U62A] | 0.116
UUCCUCUUUCACGUGCGCGUGAAAGAGAGAAGUAAACCAGAGAAACACACGUUGUGGUAUAUUACCUGGUA [G1U G34A] | 0.143
GUCCGCUUUCACGUGCGCGUGAAAGAGAGAAGUCAACCAGAGAAACACACGUUGUGGUAUAUUACCUGGUA [U5G G34C] | 0.886
AUCCUCUUUCACGUGCGCGUGAAAGAGAGAAGUGAACCAGAGAAACACACGGUGUGGUAUAUUACCUGGUA [G1A U52G] | 0.0884
GUCCUCUUUCACGUGAGCGUGAAAGAGAGAAGUGAACCAGUGAAACACACGUUGUGGUAUAUUACCUGGUA [C16A A41U] | 1.3
GUCCUCUUUCACGUGCGCGCGAAAGAGAGAAGUGAACCAGAGAAACACACGUUGUGGUAUAUUACCUGGCA [U20C U70C] | 0.945
GCCCUCUUUCACGUGCGCGUGAAAGAGAGAAGUGAACCAGAGAAACACACGUUGUGGUAUAUUCCCUGGUA [U2C A64C] | 0.0771
GUCCUCUUUCACGUGCGCGUGAAAGAGAAAACUGAACCAGAGAAACACACGUUGUGGUAUAUUACCUGGUA [G29A G32C] | 0.106
GUCCUCUUUCACGUGCGCGUGAAAGAGAGAAGUGAACCAGAGAAACACGCGUUGUGGUAUAUUACCUGGUC [A49G A71C] | 1.18
GUCGUCUUUCACGUGCGCGUGAAAGAGAGAAGUGAACCAGAGGAACACACGUUGUGGUAUAUUACCUGGUA [C4G A43G] | 0.121
GUCCUCUUUCACGUGCGCGUCAAAGAGAGAAGUGAACCAGAGAAACACACGUGGUGGUAUAUUACCUGGUA [G21C U53G] | 0.58
GUCCUCUUCCACGUGCGCGUGAAAGAGAGAAGUGAACCAGAGAAACACACGUUGUGGUAUAUUACCUUGUA [U9C G68U] | 0.217
GUCCUCUUUCACGUGCGCGUGAAAGAGAGAAGUGAACCAGAGAAACACACGUUGUGGUAUAUGACCGGGUA [U63G U67G] | 0.134
GUCCCCUUUCACGUGCGCGUGAAUGAGAGAAGUGAACCAGAGAAACACACGUUGUGGUAUAUUACCUGGUA [U5C A24U] | 0.229
GUCCUCUUUCACGUGCGCGUGAAAGAGAGAAGUGAACCAGAGAAACGCACGUUGUGGUAUAUUACCUUGUA [A47G G68U] | 0.104
GUCCUCUUUCACGUGCGCAUGAAAGAGAGAAGUGAACCAGAGAAACACACGUUGUGGUAUAUUACCUGGAA [G19A U70A] | 0.599
GCCCUCUUUCACGUGCGCGUGGAAGAGAGAAGUGAACCAGAGAAACACACGUUGUGGUAUAUUACCUGGUA [U2C A22G] | 0.0938
GUCCUCUUUCACGUCCGCGUGAAAGAGAGAAGUGAACCAGAGAAAGACACGUUGUGGUAUAUUACCUGGUA [G15C C46G] | 0.0585
